From patent US10907134B2, “Mutated genes for the catalytic protein of oplophorus luciferase and use thereof” (JNC CORPORATION, priority 2013, dated 2021)

Tests used:
[1] = Substrate specificities of KAZ mutants (ZZ-fused, crude enzyme), CTZ; format: biochemical; settings: for Relative Luminescence Activity CTZ Int. / Relative Luminescence Activity CTZ Imax: ZZ-fused crude enzyme, 1 μg substrate; for Relative Luminescence Activity CTZ Int.: integrated for 60 seconds; for Relative Luminescence Activity CTZ Imax: maximum intensity of luminescence; for Substrate specificity: coelenterazine versus its analogues
Protocol: (§1) The coelenterazine analogues used for substrate specificity studies were synthesized by the methods described in publications. Specifically, bis-coelenterazine was synthesized by the method described in Nakamura et al. (1997) Tetrahedron Lett. 38: 6405-6406; furimazine by the method described in Hall et al. (2012) ACS Chem. Biol. […]; and, 6h-coelenterazine, f-coelenterazine and 6h-f-coelenterazine by the methods described in Inouye et al (2013) Biochem. Biophys. Res. Commun. 437: 23-28.
(§2) DTT was added to the crude enzyme solutions obtained in EXAMPLE 17 at a final concentration of 1 mM and the mixtures were allowed to stand in an ice water for more than 5 hours in the same manner as Example 8. A luminescence reaction was started by the addition of 1 μL each of the crude enzyme solutions to 100 μL of TE containing 1 μg of coelenterazine (manufactured by JNC Corp.) or its analogues. The luminescence activities were determined using a luminometer (manufactured by Atto Inc.: AB2200) for 60 seconds, and the maximum intensity of luminescence (Imax) was shown as relative luminescence activity.

[2] = Substrate specificities of KAZ mutants (ZZ-fused, crude enzyme), 6h-f-CTZ; format: biochemical; settings: 1 μg substrate; for Relative Luminescence Activity 6h-f-CTZ Int.: integrated for 60 seconds; for Relative Luminescence Activity 6h-f-CTZ Imax: maximum intensity of luminescence
Protocol: as §1, §2

CHO-K1 cells = experiment: Luminescence activity of KAZ mutants expressed in animal culture cells without secretional signal peptide sequence; format: cell-based, Chinese hamster; settings: for Relative Luminescence Activity (Imax) Cell Extracts / Relative Luminescence Activity (Imax) Culture Medium: Table 12, pcDNA3- vectors without secretion signal; for Relative Luminescence Activity (Imax) Cell Extracts / Relative Luminescence Activity (Imax) Culture Medium / Luminescence activity in the cell extracts, fold higher than wild KAZ: CHO-K1, coelenterazine; for Luminescence activity in the cell extracts, fold higher than wild KAZ: vectors without a secretion signal; for Luminescence activity compared with wild KAZ when coelenterazine was used as a substrate: summary of results
Protocol: Chinese hamster ovary cell line CHO-K1 was cultured in Ham's F-12 medium (manufactured by Wako Pure Chemical Industries, Ltd.) supplemented with 10% (v/v) fetal bovine serum (manufactured by Biowest Inc.). The CHO-K1 cells were plated in a 6-well plate in 1×10^5 cells/well/2 mL medium (n=2) and cultured in an incubator at 37° C. in 5% (v/v) CO2. After 24 hours, the purified recombinant plasmid was transfected to CHO-K1 cells using a FuGene HD transfection kit (manufactured by Promega Corp.), which was provided for subsequent experiment. Specifically, 1 μg of the recombinant plasmid pGL4.13 [Luc2/sv40], 0.1 μg of the internal standard vector and 3 μL of FuGene HD were added to 100 μL of the medium, which was allowed to stand at room temperature for 15 minutes. Subsequently, 100 μL of the DNA-FuGene complex was added to the cells in the 6 wells. After incubation for 48 hours, the culture medium was collected. On the other hand, the KAZ mutants expressed in the cells were washed 3 times with 3 mL of 1×PBS, then suspended in 1 mL of 1×PBS and disrupted on ice by ultrasonication, which was used as enzyme solutions of the cell-extracts of KAZ mutants.
A luminescence reaction was started by adding 5 μL of the culture media and cell extracts obtained in EXAMPLE 10 to 100 μL of 30 mM Tris-HCl (pH 7.6)-10 mM EDTA (manufactured by Wako Pure Chemical Industries, Ltd.) containing 0.5 μg of coelenterazine (manufactured by INC Corp.). The luminescence activity was determined using a luminometer (manufactured by Atto Inc.: AB2200) for 60 seconds, and the maximum intensity of luminescence (Imax) was defined as a percentage.
The gene fragments of the KAZ mutants with two amino acid substitutions and three amino acid substitutions and nanoKAZ containing the Kozak sequence were digested with restriction enzymes Asp718 and XbaI, and inserted into the Asp718-XbaI site of pcDNA3 vector (manufactured by Invitrogen Inc.) to construct the vectors of pcDNA3-KAZ-V44I, pcDNA3-KAZ-A54I, pcDNA3-KAZ-Y138I, pcDNA3-KAZ-V44I-A54I, pcDNA3-KAZ-V44I-Y138I, pcDNA3-KAZ-A54I-Y138I and pcDNA3-KAZ-V44I-A54I-Y138I.
The culture media of the KAZ mutants with two amino acid substitutions and KAZ mutants with three amino acid substitutions and the enzyme solutions of cell-extracts of KAZ mutants were obtained in the same manner as EXAMPLE 10.
Luminescence activities of the resulting enzyme solutions and enzyme solutions of the cell-extracts of KAZ mutants were determined in the same manner as EXAMPLE 11.

| Molecule | Relative Luminescence Activity CTZ Int. [1] | Relative Luminescence Activity CTZ Imax [1] | Relative Luminescence Activity 6h-f-CTZ Int. [2] | Relative Luminescence Activity 6h-f-CTZ Imax [2] | Relative Luminescence Activity (Imax) Cell Extracts (CHO-K1 cells) | Relative Luminescence Activity (Imax) Culture Medium (CHO-K1 cells) | Luminescence activity in the cell extracts, fold higher than wild KAZ (CHO-K1 cells) | Substrate specificity [1] | Luminescence activity compared with wild KAZ when coelenterazine was used as a substrate (CHO-K1 cells) |
| --- | --- | --- | --- | --- | --- | --- | --- | --- | --- |
| KAZ-A54I: KAZ with single amino acid substitution A54I, SEQ ID NO: 6 (protein) FTLADFVGDWQQTAGYNQDQVLEQGGLSSLFQALGVSVTPIQKVVLSGENGLKIDIHVIIPYEGLSGFQMGLIEMIFKVVYPVDDHHFKIILHYGTLVIDGVTPNMIDYFGRPYPGIAVFDGKQITVTGTLWNGNKIYDERLINPDGSLLFRVTINGVTGWRLCENILA | 9.0 | 8.4 | 2.0 | 1.6 | 6.7 | 0.03 | 6.7 fold | – | – |
| KAZ-V44I-A54I: KAZ mutant with two amino acid substitutions V44I and A54I, SEQ ID NO: 10 (protein) FTLADFVGDWQQTAGYNQDQVLEQGGLSSLFQALGVSVTPIQKIVLSGENGLKIDIHVIIPYEGLSGFQMGLIEMIFKVVYPVDDHHFKIILHYGTLVIDGVTPNMIDYFGRPYPGIAVFDGKQITVTGTLWNGNKIYDERLINPDGSLLFRVTINGVTGWRLCENILA | 12.7 | 15.3 | 4.0 | 3.2 | 22.5 | 0.05 | 23 fold | high substrate specificity for coelenterazine | markedly higher luminescence activities than wild KAZ |
| KAZ-Y138I: KAZ with single amino acid substitution Y138I, SEQ ID NO: 8 (protein) FTLADFVGDWQQTAGYNQDQVLEQGGLSSLFQALGVSVTPIQKVVLSGENGLKADIHVIIPYEGLSGFQMGLIEMIFKVVYPVDDHHFKIILHYGTLVIDGVTPNMIDYFGRPYPGIAVFDGKQITVTGTLWNGNKIIDERLINPDGSLLFRVTINGVTGWRLCENILA | 5.9 | 7.5 | 0.8 | 0.6 | 6.4 | 0.03 | 6.4 fold | – | – |
| KAZ-A54I-Y138I: KAZ mutant with two amino acid substitutions A54I and Y138I, SEQ ID NO: 14 (protein) FTLADFVGDWQQTAGYNQDQVLEQGGLSSLFQALGVSVTPIQKVVLSGENGLKIDIHVIIPYEGLSGFQMGLIEMIFKVVYPVDDHHFKIILHYGTLVIDGVTPNMIDYFGRPYPGIAVFDGKQITVTGTLWNGNKIIDERLINPDGSLLFRVTINGVTGWRLCENILA | 19.1 | 23.1 | 5.7 | 5.2 | 21.5 | 0.05 | 22 fold | high substrate specificity for coelenterazine | markedly higher luminescence activities than wild KAZ |
| KAZ-V44I: KAZ with single amino acid substitution V44I, SEQ ID NO: 4 (protein) FTLADFVGDWQQTAGYNQDQVLEQGGLSSLFQALGVSVTPIQKIVLSGENGLKADIHVIIPYEGLSGFQMGLIEMIFKVVYPVDDHHFKIILHYGTLVIDGVTPNMIDYFGRPYPGIAVFDGKQITVTGTLWNGNKIYDERLINPDGSLLFRVTINGVTGWRLCENILA | 5.9 | 7.2 | 0.7 | 0.6 | 3.7 | 0.06 | 3.7 fold | – | – |
| KAZ: wild 19 kDa catalytic protein of Oplophorus luciferase (19kOLase), amino acid sequence SEQ ID NO: 2 (protein, listed as Oplophorus gracilirostris) FTLADFVGDWQQTAGYNQDQVLEQGGLSSLFQALGVSVTPIQKVVLSGENGLKADIHVIIPYEGLSGFQMGLIEMIFKVVYPVDDHHFKIILHYGTLVIDGVTPNMIDYFGRPYPGIAVFDGKQITVTGTLWNGNKIYDERLINPDGSLLFRVTINGVTGWRLCENILA | 1.0 | 1.0 | 0.7 | 0.6 | 1.0 | 0.03 | – | – | – |
| KAZ-V44I-Y138I: KAZ mutant with two amino acid substitutions V44I and Y138I, SEQ ID NO: 12 (protein) FTLADFVGDWQQTAGYNQDQVLEQGGLSSLFQALGVSVTPIQKIVLSGENGLKADIHVIIPYEGLSGFQMGLIEMIFKVVYPVDDHHFKIILHYGTLVIDGVTPNMIDYFGRPYPGIAVFDGKQITVTGTLWNGNKIIDERLINPDGSLLFRVTINGVTGWRLCENILA | 9.9 | 17.1 | 4.2 | 3.6 | 14.7 | 0.04 | 15 fold | high substrate specificity for coelenterazine | markedly higher luminescence activities than wild KAZ |
| KAZ-V44I-A54I-Y138I: KAZ mutant with three amino acid substitutions V44I, A54I and Y138I, SEQ ID NO: 16 (protein) FTLADFVGDWQQTAGYNQDQVLEQGGLSSLFQALGVSVTPIQKIVLSGENGLKIDIHVIIPYEGLSGFQMGLIEMIFKVVYPVDDHHFKIILHYGTLVIDGVTPNMIDYFGRPYPGIAVFDGKQITVTGTLWNGNKIIDERLINPDGSLLFRVTINGVTGWRLCENILA | 66.7 | 66.7 | 9.6 | 9.5 | 56.0 | 0.08 | 56 fold | high substrate specificity for coelenterazine | markedly higher luminescence activities than wild KAZ |
